# According to patent US20190170753A1:
# Experiments:
# [1] = target: Mut6T110S biotin labeled HCV core peptide (hepatitis C virus); assay: capture EIA; Ab 0.977 ng/mL; bt-peptide 500 ng/mL
# [2] = target: C113T109N biotin labeled HCV core peptide (hepatitis C virus); assay: capture EIA; Ab 0.977 ng/mL; bt-peptide 500 ng/mL
# [3] = target: Mut1T110N biotin labeled HCV core peptide (hepatitis C virus); assay: capture EIA; Ab 0.977 ng/mL; bt-peptide 500 ng/mL
# [4] = target: 92-133 biotin labeled HCV core peptide (hepatitis C virus) (UniProt Q9WMX2); assay: capture EIA; Ab 0.977 ng/mL; bt-peptide 500 ng/mL
# [5] = target: Mut6T110S biotin labeled HCV core peptide (hepatitis C virus); assay: capture EIA; Ab 1.953 ng/mL; bt-peptide 500 ng/mL
# [6] = target: C113T109N biotin labeled HCV core peptide (hepatitis C virus); assay: capture EIA; Ab 1.953 ng/mL; bt-peptide 500 ng/mL
# [7] = target: Mut1T110N biotin labeled HCV core peptide (hepatitis C virus); assay: capture EIA; Ab 1.953 ng/mL; bt-peptide 500 ng/mL
# [8] = target: 92-133 biotin labeled HCV core peptide (hepatitis C virus) (UniProt Q9WMX2); assay: capture EIA; Ab 1.953 ng/mL; bt-peptide 500 ng/mL
# [9] = target: Mut6T110S biotin labeled HCV core peptide (hepatitis C virus); assay: capture EIA; Ab 3.906 ng/mL; bt-peptide 500 ng/mL
# [10] = target: C113T109N biotin labeled HCV core peptide (hepatitis C virus); assay: capture EIA; Ab 3.906 ng/mL; bt-peptide 500 ng/mL
# [11] = target: Mut1T110N biotin labeled HCV core peptide (hepatitis C virus); assay: capture EIA; Ab 3.906 ng/mL; bt-peptide 500 ng/mL
# [12] = target: 92-133 biotin labeled HCV core peptide (hepatitis C virus) (UniProt Q9WMX2); assay: capture EIA; Ab 3.906 ng/mL; bt-peptide 500 ng/mL
# [13] = target: Mut6T110S biotin labeled HCV core peptide (hepatitis C virus); assay: capture EIA; Ab 1000 ng/mL; bt-peptide 500 ng/mL
# [14] = target: C113T109N biotin labeled HCV core peptide (hepatitis C virus); assay: capture EIA; Ab 1000 ng/mL; bt-peptide 500 ng/mL
# [15] = target: Mut1T110N biotin labeled HCV core peptide (hepatitis C virus); assay: capture EIA; Ab 1000 ng/mL; bt-peptide 500 ng/mL
# [16] = target: 92-133 biotin labeled HCV core peptide (hepatitis C virus) (UniProt Q9WMX2); assay: capture EIA; Ab 1000 ng/mL; bt-peptide 500 ng/mL
# [17] = target: Mut6T110S biotin labeled HCV core peptide (hepatitis C virus); assay: capture EIA; Ab 15.6 ng/mL; bt-peptide 500 ng/mL (summary of Table 7)
# [18] = target: C113T109N biotin labeled HCV core peptide (hepatitis C virus); assay: as above
# [19] = target: Mut1T110N biotin labeled HCV core peptide (hepatitis C virus); assay: as above
# [20] = target: 92-133 biotin labeled HCV core peptide (hepatitis C virus) (UniProt Q9WMX2); assay: as above
# [21] = target: Mut6T110S biotin labeled HCV core peptide (hepatitis C virus); assay: capture EIA; Ab 31.25 ng/mL; bt-peptide 500 ng/mL
# [22] = target: C113T109N biotin labeled HCV core peptide (hepatitis C virus); assay: capture EIA; Ab 31.25 ng/mL; bt-peptide 500 ng/mL
# [23] = target: Mut1T110N biotin labeled HCV core peptide (hepatitis C virus); assay: capture EIA; Ab 31.25 ng/mL; bt-peptide 500 ng/mL
# [24] = target: 92-133 biotin labeled HCV core peptide (hepatitis C virus) (UniProt Q9WMX2); assay: capture EIA; Ab 31.25 ng/mL; bt-peptide 500 ng/mL
# [25] = target: Mut6T110S biotin labeled HCV core peptide (hepatitis C virus); assay: capture EIA; Ab 500 ng/mL; bt-peptide 500 ng/mL
# [26] = target: C113T109N biotin labeled HCV core peptide (hepatitis C virus); assay: capture EIA; Ab 500 ng/mL; bt-peptide 500 ng/mL
# [27] = target: Mut1T110N biotin labeled HCV core peptide (hepatitis C virus); assay: capture EIA; Ab 500 ng/mL; bt-peptide 500 ng/mL
# [28] = target: 92-133 biotin labeled HCV core peptide (hepatitis C virus) (UniProt Q9WMX2); assay: capture EIA; Ab 500 ng/mL; bt-peptide 500 ng/mL
# [29] = target: Mut6T110S biotin labeled HCV core peptide (hepatitis C virus); assay: capture EIA; Ab 250 ng/mL; bt-peptide 500 ng/mL
# [30] = target: C113T109N biotin labeled HCV core peptide (hepatitis C virus); assay: capture EIA; Ab 250 ng/mL; bt-peptide 500 ng/mL
# [31] = target: Mut1T110N biotin labeled HCV core peptide (hepatitis C virus); assay: capture EIA; Ab 250 ng/mL; bt-peptide 500 ng/mL
# [32] = target: 92-133 biotin labeled HCV core peptide (hepatitis C virus) (UniProt Q9WMX2); assay: capture EIA; Ab 250 ng/mL; bt-peptide 500 ng/mL
# [33] = target: Mut6T110S biotin labeled HCV core peptide (hepatitis C virus); assay: capture EIA; Ab 2000 ng/mL; bt-peptide 500 ng/mL
# [34] = target: C113T109N biotin labeled HCV core peptide (hepatitis C virus); assay: capture EIA; Ab 2000 ng/mL; bt-peptide 500 ng/mL
# [35] = target: Mut1T110N biotin labeled HCV core peptide (hepatitis C virus); assay: capture EIA; Ab 2000 ng/mL; bt-peptide 500 ng/mL
# [36] = target: 92-133 biotin labeled HCV core peptide (hepatitis C virus) (UniProt Q9WMX2); assay: capture EIA; Ab 2000 ng/mL; bt-peptide 500 ng/mL
# [37] = target: Mut6T110S biotin labeled HCV core peptide (hepatitis C virus); assay: capture EIA; Ab 62.5 ng/mL; bt-peptide 500 ng/mL
# [38] = target: C113T109N biotin labeled HCV core peptide (hepatitis C virus); assay: capture EIA; Ab 62.5 ng/mL; bt-peptide 500 ng/mL
# [39] = target: Mut1T110N biotin labeled HCV core peptide (hepatitis C virus); assay: capture EIA; Ab 62.5 ng/mL; bt-peptide 500 ng/mL
# [40] = target: 92-133 biotin labeled HCV core peptide (hepatitis C virus) (UniProt Q9WMX2); assay: capture EIA; Ab 62.5 ng/mL; bt-peptide 500 ng/mL
# [41] = target: Mut6T110S biotin labeled HCV core peptide (hepatitis C virus); assay: capture EIA; Ab 15.625 ng/mL; bt-peptide 500 ng/mL
# [42] = target: C113T109N biotin labeled HCV core peptide (hepatitis C virus); assay: capture EIA; Ab 15.625 ng/mL; bt-peptide 500 ng/mL
# [43] = target: Mut1T110N biotin labeled HCV core peptide (hepatitis C virus); assay: capture EIA; Ab 15.625 ng/mL; bt-peptide 500 ng/mL
# [44] = target: 92-133 biotin labeled HCV core peptide (hepatitis C virus) (UniProt Q9WMX2); assay: capture EIA; Ab 15.625 ng/mL; bt-peptide 500 ng/mL
# [45] = target: Mut6T110S biotin labeled HCV core peptide (hepatitis C virus); assay: capture EIA; Ab 7.813 ng/mL; bt-peptide 500 ng/mL
# [46] = target: C113T109N biotin labeled HCV core peptide (hepatitis C virus); assay: capture EIA; Ab 7.813 ng/mL; bt-peptide 500 ng/mL
# [47] = target: Mut1T110N biotin labeled HCV core peptide (hepatitis C virus); assay: capture EIA; Ab 7.813 ng/mL; bt-peptide 500 ng/mL
# [48] = target: 92-133 biotin labeled HCV core peptide (hepatitis C virus) (UniProt Q9WMX2); assay: capture EIA; Ab 7.813 ng/mL; bt-peptide 500 ng/mL
# [49] = target: Mut6T110S biotin labeled HCV core peptide (hepatitis C virus); assay: capture EIA; Ab 125 ng/mL; bt-peptide 500 ng/mL
# [50] = target: C113T109N biotin labeled HCV core peptide (hepatitis C virus); assay: capture EIA; Ab 125 ng/mL; bt-peptide 500 ng/mL
# [51] = target: Mut1T110N biotin labeled HCV core peptide (hepatitis C virus); assay: capture EIA; Ab 125 ng/mL; bt-peptide 500 ng/mL
# [52] = target: 92-133 biotin labeled HCV core peptide (hepatitis C virus) (UniProt Q9WMX2); assay: capture EIA; Ab 125 ng/mL; bt-peptide 500 ng/mL
substance,measurement,setting,value
C11-3 (ABT-4) monoclonal antibody,signal at 492 nm,[1],0.101 A492
same,signal at 492 nm,[2],0.104 A492
same,signal at 492 nm,[3],0.0755 A492
same,signal at 492 nm,[4],0.116 A492
same,signal at 492 nm,[5],0.0964 A492
same,signal at 492 nm,[6],0.114 A492
same,signal at 492 nm,[7],0.0854 A492
same,signal at 492 nm,[8],0.134 A492
same,signal at 492 nm,[9],0.227 A492
same,signal at 492 nm,[10],0.0833 A492
same,signal at 492 nm,[11],0.079 A492
same,signal at 492 nm,[12],0.183 A492
same,signal at 492 nm,[13],2.15 A492
same,signal at 492 nm,[14],0.0806 A492
same,signal at 492 nm,[15],0.0721 A492
same,signal at 492 nm,[16],1.87 A492
same,signal at 492 nm,[17],0.807 A492
same,signal at 492 nm,[18],0.116 A492
same,signal at 492 nm,[19],0.11 A492
same,signal at 492 nm,[20],1.01 A492
same,signal at 492 nm,[21],1.54 A492
same,signal at 492 nm,[22],0.16 A492
same,signal at 492 nm,[23],0.107 A492
same,signal at 492 nm,[24],1.55 A492
same,signal at 492 nm,[25],2.24 A492
same,signal at 492 nm,[26],0.0882 A492
same,signal at 492 nm,[27],0.0765 A492
same,signal at 492 nm,[28],1.95 A492
same,signal at 492 nm,[29],1.83 A492
same,signal at 492 nm,[30],0.0963 A492
same,signal at 492 nm,[31],0.0857 A492
same,signal at 492 nm,[32],1.68 A492
same,signal at 492 nm,[33],1.73 A492
same,signal at 492 nm,[34],0.0707 A492
same,signal at 492 nm,[35],0.0915 A492
same,signal at 492 nm,[36],1.45 A492
same,signal at 492 nm,[37],2.11 A492
same,signal at 492 nm,[38],0.202 A492
same,signal at 492 nm,[39],0.155 A492
same,signal at 492 nm,[40],1.92 A492
same,signal at 492 nm,[41],0.807 A492
same,signal at 492 nm,[42],0.116 A492
same,signal at 492 nm,[43],0.11 A492
same,signal at 492 nm,[44],1.01 A492
same,signal at 492 nm,[45],0.344 A492
same,signal at 492 nm,[46],0.119 A492
same,signal at 492 nm,[47],0.0966 A492
same,signal at 492 nm,[48],0.562 A492
same,signal at 492 nm,[49],2.02 A492
same,signal at 492 nm,[50],0.147 A492
same,signal at 492 nm,[51],0.127 A492
same,signal at 492 nm,[52],1.83 A492
